{"source": "paper PMC11724285", "origin": "cited, not measured here", "system": "NF-κB (subunit not stated)", "note": "pKd: −log10 of the molar value.", "data": [{"sequence": "GAUACUUGAAACUGUAAGGUUGGCGUAUA [NF-κB RNA aptamer (29 nt)]", "values": [{"measurement": "pKd", "value": 8.30}]}]}
